Measurements reported in publication doi:10.1101/2024.06.13.598862 (bioRxiv, 2024).

Target: full-length human tau, null cysteine variant (C291S, C322S) (human, UniProt P10636-8 1-441, C291S | C322S)
Experiment: co-phase separation

- binding result: binds
B1: Ydj1, yeast Hsp40 (natural protein, UniProt P25491 1-409, looked up)
chain: MVKETKFYDILGVPVTATDVEIKKAYRKCALKYHPDKNPSEEAAEKFKEASAAYEILSDPEKRDIYDQFGEDGLSGAGGAGGFPGGGFGFGDDIFSQFFGAGGAQRPRGPQRGKDIKHEISASLEELYKGRTAKLALNKQILCKECEGRGGKKGAVKKCTSCNGQGIKFVTRQMGPMIQRFQTECDVCHGTGDIIDPKDRCKSCNGKKVENERKILEVHVEPGMKDGQRIVFKGEADQAPDVIPGDVVFIVSERPHKSFKRDGDDLVYEAEIDLLTAIAGGEFALEHVSGDWLKVGIVPGEVIAPGMRKVIEGKGMPIPKYGGYGNLIIKFTIKFPENHFTSEENLKKLEEILPPRIVPAIPKKATVDECVLADFDPAKYNRTRASRGGANYDSDEEEQGGEGVQCASQ
